Source: article PMC6684648 (2019)

Biological target: human IGF2R extra-cellular domains 1-15 fused at the C-terminal to rat CD4 (domains 3 + 4), biotin acceptor … (human, UniProt P11717 41-2304, biotin on the BirA acceptor tag)
Assay: SPR

Kd [nM] | Binder
52.3 | bovine β-glucuronidase (290 KD) (enzyme, mannose 6-phosphate (M6P-beta-glucuronidase)) LQGGMLYPRESRSRERKELDGLWSFRADFSDNRRQGFEQQWYRAPLRESGPTLDMPVPSSFNDVGQDGQLRSFVGWVWYEREITLPQRWTEDLGTRVVLRIGSAHYYAIVWVNGVHVLEHEGGHLPFEADISKLVQSGPLSSCRITIAINNTLSPHTLPPGTILYKTDPSMYPKGYFVQNTKFDFFNYAGLHRSVLLYTTPTTYIDDITVTTDMDQDIGLVNYQIIVQGSDHFQVDVSLLDEEGKVMAKGAGAEGQLQVPSAHLWWPYLMHEHPAYLYSLEVKLTAQTAVGPVSDFYTLPVGIRTVAVTKSQFLINGKPFYFRGVNKHEDADIRGKGFDWPLLVKDFNLLRWLGANAFRTSHYPYSEEVLQLCDRYGIVVIDESPGVGIVLVESFSNVSLQHHLEVMEEMIRRDKNHPAVVMWSLANEPASFLKPAGYYFKTLIAHTKALDPSRPVTFVTNTNYEADLGAPYVDIICVNSYYSWYHDYGHMEVIQLQLATQFENWYKAYQKPMIQSEYGADAIEGFHEDPPLMFSEEYQKGLLQQYHVVLDQKRKEYVVGELIWNFADFMTNQSPVRMIGNRKGIFTRQRQPKSAAFLLRERYWKLANETRYQRSAVTSQCVGSGLFTV
43.5 | human glu-plasminogen (88 KD) (natural protein) EPLDDYVNTQGASLFSVTKKQLGAGSIEECAAKCEEDEEFTCRAFQYHSKEQQCVIMAENRKSSIIIRMRDVVLFEKKVYLSECKTGNGKNYRGTMSKTKNGITCQKWSSTSPHRPRFSPATHPSEGLEENYCRNPDNDPQGPWCYTTDPEKRYDYCDILECEEECMHCSGENYDGKISKTMSGLECQAWDSQSPHAHGYIPSKFPNKNLKKNYCRNPDRELRPWCFTTDPNKRWELCDIPRCTTPPPSSGPTYQCLKGTGENYRGNVAVTVSGHTCQHWSAQTPHTHNRTPENFPCKNLDENYCRNPDGKRAPWCHTTNSQVRWEYCKIPSCDSSPVSTEQLAPTAPPELTPVVQDCYHGDGQSYRGTSSTTTTGKKCQSWSSMTPHRHQKTPENYPNAGLTMNYCRNPDADKGPWCFTTDPSVRWEYCNLKKCSGTEASVVAPPPVVLLPDVETPSEEDCMFGNGKGYRGKRATTVTGTPCQDWAAQEPHRHSIFTPETNPRAGLEKNYCRNPDGDVGGPWCYTTNPRKLYDYCDVPQCAAPSFDCGKPQVEPKKCPGRVVGGCVAHPHSWPWQVSLRTRFGMHFCGGTLISPEWVLTAAHCLEKSPRPSSYKVILGAHQEVNLEPHVQEIEVSRLFLEPTRKDIALLKLSSPAVITDKVIPACLPSPNYVVADRTECFITGWGETQGTFGAGLLKEAQLPVIENKVCNRYEFLNGRVQSTELCAGHLAGGTDSCQGDSGGPLVCFEKDKYILQGVTSWGLGCARPNKPGVYVRVSRFVTWIEGVMRNN
